The source of these data is publication PMC5454996.

For test [1], the target named is recombinant Der p 1 (mature, enzymatically active cysteine protease) (house dust mite) (UniProt P08176). The test can be described thus: enzyme inhibition kinetics; steady-state velocities of Der p 1 at each propeptide concentration, pH 7, substrate Boc-Gln-Ala-Arg-AMC at 160 µM; KD calculated by Equation (4) because initial and steady-state velocities differed little.

For test [2] the target is unchanged. Nature of the test: enzyme inhibition kinetics; time-dependent inhibition of Der p 1 (5 nM) by propeptide (30–300 nM) at pH 7, fluorogenic substrate Boc-Gln-Ala-Arg-AMC; pre-steady-state kobs against propeptide concentration by linear regression gives KD Global, kon and koff; simple 1/1 stoichiometry assumed.
The target is the same in test [3].

Take “Der p 1 propeptide double mutant D51pA/E56pA, full-length (1-80) (domain or fragment)”: the dissociation constant (Kd) in test [1] is 130 nM.
With “Der p 1 propeptide mutant D51pA, full-length (1-80) (domain or fragment)”, in test [2], the Kd was 37 nM, the off-rate constant (koff) is 0.017 s⁻¹ and the kon was 440000 M⁻¹ s⁻¹.
In the same order, the values of “Der p 1 propeptide mutant E56pA, full-length (1-80) (domain or fragment)” are 5 nM, 0.007 s⁻¹ and 1.5e+06 M⁻¹ s⁻¹.
On to “Der p 1 propeptide mutant K17pA, full-length (1-80) (domain or fragment)”, for which, in test [2], the equilibrium dissociation constant (Kd) worked out at 15 nM, the koff was determined as 0.007 s⁻¹ and the kon came out at 460000 M⁻¹ s⁻¹.
As to “Der p 1 propeptide mutant Y19pF, full-length (1-80) (domain or fragment)”, in test [2], the Kd was determined as 6 nM, the koff was 0.007 s⁻¹ and the kon amounted to 1.2e+06 M⁻¹ s⁻¹.
With “Der p 1 propeptide, wild type, full-length (1-80) (domain or fragment)”, in test [2], the Kd stood at 7 nM, the koff is 0.0078 s⁻¹ and the kon is 1.1e+06 M⁻¹ s⁻¹.

B1: tetrapeptide FDLN (first half of the cleavage site FDLN78p–A79pETN) (peptide)
peptide: FDLN
For the molecule B1, the reduction of the initial Der p 1 activity (Boc-Gln-Ala-Arg-AMC hydrolysis) by tetrapeptide (10 mM) at pH 4 in test [3] turned out to be 75%.

B2: tetrapeptide LNAE (first half of the cleavage site LNAE80p–T1NAC) (peptide)
peptide: LNAE
In the case of B2, in test [3], the reduction of the initial Der p 1 activity (Boc-Gln-Ala-Arg-AMC hydrolysis) by tetrapeptide (10 mM) at pH 4 is 80%.

B3: tetrapeptide KYVQ (first half of the cleavage site KYVQ40p–S41pNGG) (peptide)
peptide: KYVQ
Turning to B3, in test [3], the reduction of the initial Der p 1 activity (Boc-Gln-Ala-Arg-AMC hydrolysis) by tetrapeptide (10 mM) at pH 4 was determined as 45%.

B4: tetrapeptide NKSY (first half of the cleavage site NKSY19p–A20pTFE) (peptide)
peptide: NKSY
Regarding B4, the reduction of the initial Der p 1 activity (Boc-Gln-Ala-Arg-AMC hydrolysis) by tetrapeptide (10 mM) at pH 4 in test [3] stood at 30%.

Usually Kd stands for the equilibrium constant for the complex coming apart. For orientation: koff means the rate constant with which the complex falls apart. A word on the kon: it is a measure of how fast the partners come together.
